Test results: the supplement of paper PMC9170038

Experiments:
MS2 coat protein [1] = assay: apparent KD of MS2 coat protein, switch ON state; designed switch direction (-1 OFF switch, 1 ON switch): -1; higher = weaker reporter binding; settings: FMN input: 0 or 200 uM; Eterna round: R93 (includes R88 designs)
In short: (§1)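 On-chip transcription from Illumina sequencing clusters produced the designed RNA switches. These were titrated with SNAP-549-labelled MS2 coat protein (twofold steps, 0.7 or 1.5 nM to 3 µM) in 100 mM Tris-HCl pH 7.5, 80 mM KCl, 4 mM MgCl2, with or without constant ligand. The apparent KD given is the per-design median of normalised cluster binding-curve fits.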

MS2 coat protein [2] = assay: apparent KD of MS2 coat protein, switch OFF state (with FMN for OFF switches, without FMN for ON switches); designed switch direction (-1 OFF switch, 1 ON switch): -1; higher = weaker reporter binding; settings: FMN input: 0 or 200 uM; Eterna round: R93 (includes R88 designs)
In short: as §1

Sequence	apparent KD of MS2 coat protein (MS2 coat protein [1])	apparent KD of MS2 coat protein (MS2 coat protein [2])
AAAAAGGCAGGAUAUACGUACAUGUCGAAAGACGUGAAGGGACAUGAGGAUCACCCAUGUAGAAGGGUCAAGAA [Mat - Exclusion 2 - JL mod - D77]	0.111 µM	0.0934 µM
AUAAACGGAGGAUAUACAUGAGGAUCACCCAUGUAAAUAAAUAGGAGAGCCACAAUAAGUAGAAGGUCGAAUAA [JR_Exc003_Sub010]	0.0356 µM	0.0324 µM
GUGUACAGAGGAUAUACAUAAGCAUGGAAACAUGCAAGAUCACAUGAGGAUCACCCAUGUAGAAGGCUGUACAC [Ex2: 738]	0.342 µM	0.18 µM
AAAAAGUGAGGAUAUACAUGAGGAUCACCCAUGUUAAAAAAGGAAAAAAAAAAAAAAUGUAGAAGGCGCAAAAA [water's exclusion 3]	0.0369 µM	0.036 µM
AGCAAGUAAGGAUAUGCGAAGUCAGGACACACACUGACAAAGCAGAAGGUACAUGAGGAUCACCCAUGUAAGCA [Mat - Exaclusion 4 - Eli mod - D62]	0.0218 µM	0.0149 µM
AAGAAGUGAGGAUAUACAUGAGGAUCACCCAUGUUAAGAAGAAUUUUAGAGAAAGAAGGUAGAAGGCACAAGAA [JR_Exclusion3_Sub5]	0.0347 µM	0.0353 µM
AAUAAGUGAGGAUAUCCAAAUAGUAGAUAAGAUUCCCUAAAGGAGAAGGCACAUGAGGAUCACCCAUGUAAAUA [JR_Exc004_Sub006]	0.0361 µM	0.0315 µM
AACAGUACAGGAUAUACAUGAGGAUCACCCAUGUGAGAGGAAUAAAACAAAAAUAAAAGUAGAAGGGUACUGGA [Ruby 45]	0.035 µM	0.106 µM
GGAAAGUAAGGAUAUGCGAACAAACAAACAAACAAAAGGGAACAUGAGGAUCACCCAUGUAGAAGGUGCAAACA [Exclusion 2 Three redone]	0.046 µM	0.0326 µM
AGAUAGUCAGGAUAUACGAAAAUGUAAAAAGAAGUGAAGGGACAUGAGGAUCACCCAUGUAGAAGGGACUAGAA [74%, Web mod - With 5 less C's]	0.1 µM	0.0866 µM
AGCUAGUCAGGAUAUACGAACAAGACAAAAGACGAGAACGGACAUGAGGAUCACCCAUGUAGAAGGGACUAGCA [Diamond 8]	0.0257 µM	0.0288 µM
AAUAACCGAGGAUAUACAAAACCUGUGAUCUAGUGGAUUUUACAUGAGGAUCACCCAUGUAGAAGGCGGACAAG [Atdiiste]	0.0499 µM	0.183 µM
AAUAAAGCAGGAUAUACUAAAGAAAUGAAAAGAAAUAAAGAACAUGAGGAUCACCCAUGUAGAAGGGCUAAUAA [Semqen]	0.0428 µM	0.0184 µM
AAAAAGCAAGGAUAUACAUGAGGAUCACCCAUGUGAAAAAAAACAAUAAGAAGAAAAAGUAGAAGGUGCAAAAA [Ex 3 Tesla 1]	0.024 µM	0.0188 µM
GCUGUCCUAGGAUAUACAUGAGGAUCACCCAUGUGAGAGAAAAAAGUGAGAAAGAAAAGUAGAAGGAGGGUAGG [salish99-ex3-104]	0.0304 µM	0.0444 µM
AGAAAACAUGAGGAUCACCCAUGUAAGGAUAUGCUGAAAAACACGGAAAAAACGUGCAGCAGAAGGUACAAAAA [Mat - Exclusion 1 - Eli mod - D97]	0.0178 µM	0.0386 µM
AAAAUACAUGAGGAUCACCCAUGUGAGGAUAUGCGAAUAAAAAUAAAAUAAAAUAAAAGCAGAAGGCACGAAAA [EX 1 May 24]	0.0334 µM	0.0328 µM
AGUCGGCGAGGAUAUACAUGAGGAUCACCCAUGUGAGAGAAAAAAGUGAGUCAGAAAAGUAGAAGGCGCUGACA [JL Lego Mod 4]	0.0634 µM	0.0416 µM
AUAGUACAUGAGGAUCACCCAUGUCAGGAUAUUGGAUAUGACAUAAAAAAAAUGUUAACGAGAAGGGACUAUAA [EX1 Malc#16]	0.0292 µM	0.0277 µM
CUCUUGUGAGGAUAUCCAAGAAAAGAAAAGAAAGAAAAGAAGGAGAAGGCACAUGAGGAUCACCCAUGUAAGAA [EteRNA is fun!]	0.0386 µM	0.0389 µM
AAAAAACAUGAGGAUCACCCAUGUGAGGAUAUGCGAAAUAAAAAUAAAAUAAUAAAAAGCAGAAGGCACAAAAA [Amethyst 64]	0.0301 µM	0.0406 µM
CGGAGGAAAGGAUAUACACAAUAAAAGAAGUGAUCCUUGAGACAUGAGGAUCACCCAUGUAGAAGGUUCACUGA [Zaza]	0.0219 µM	0.0159 µM
AAAAAACAUGAGGAUCACCCAUGUUAGGAUAUCCUGCAGAAAAAAAAAAAAAACUGCAGGAGAAGGAGCAAGGA [Banishment 3 - Jieux - Exclusion 1]	0.0258 µM	0.0445 µM

Sequence	apparent KD of MS2 coat protein (MS2 coat protein [1])	apparent KD of MS2 coat protein (MS2 coat protein [2])
AAGGUAUAAGGAUAUACAUAGAUACAGACACAUGUUCAAGUACAUGAGGAUCACCCAUGUAGAAGGUAUAUAUA [AJ 13]	0.0292 µM	0.0267 µM
CGUUGGCGAGGAUAUACAUGAGGAUCACCCAUGUGAGAGAAAAAAGUGAGAAAGAAAAGUAGAAGGCGCUGACU [salish99-ex3-11]	0.0436 µM	0.132 µM
AAGAAGUGAGGAUAUACAAAAUAAAAGAAAAGAAAGAAAGAACAUGAGGAUCACCCAUGUAGAAGGCACAAGAA [Sekhemkare Amenemhat V]	0.022 µM	0.0178 µM
GGUUGGCGAGGAUAUACAUGAGGAUCACCCAUGUGAGAGAAAAAAGUGAGAAAGAAACGUAGAAGGCGCUGACG [salish99-ex3-30]	0.0884 µM	0.824 µM
AGAAAACAUGAGGAUCACCCAUGUGAGGAUAUGCAAAUAUAUACGAAAGAUUAUAAAAGCAGAAGGCACAAAAG [Meechl MS2 Ex1]	0.0358 µM	0.0577 µM
AAACAACAUGAGGAUCACCCAUGUCAGGAUAUGAACGAAAAUAAAUAAAAAUAAAAGUUCAGAAGGGACGAAAA [66%, Wbt, 16]	0.0316 µM	0.0497 µM
AGAAAACAUGAGGAUCACCCAUGUCAGGAUAUCGAUGUCCAAAAAAAAGUGCGGGACUCGAGAAGGGACUUGGG [Mod of Erbelaed v.2 (favor state 2,lowered kcal by 2.7)]	0.0272 µM	0.0246 µM
AAGAAUCGAGGAUAUACAAGAAAGAAAGAAAAGAAAAGAAAACAUGAGGAUCACCCAUGUAGAAGGCGAUAGAA [EteRNA is fun!]	0.022 µM	0.0246 µM
AGAAAACAUGAGGAUCACCCAUGUGAGGAUAUCGAUGUCCAAAAAAAAGUGCGGACCUCGAGAAGGCACAUUGG [Mod of Erbelaed v.3 (favor state 2,lowered kcal by 1)]	0.0495 µM	0.0511 µM
AAAAGUAGAGGAUAUACAUGAGGAUCACCCAUGUAGAAAGGAAGUGUAUAUAUGGCGUGUAGAAGGCUGCAUGA [Power strip]	0.0293 µM	0.0323 µM
CUCAAGUGAGGAUAUCAGUAGUAAAAAAAUAAAAUUACUACUGAGAAGGCACAUGAGGAUCACCCAUGUGCCAA [EX4 335: Super Stable 35]	0.0147 µM	0.0152 µM
GAAACACAUGAGGAUCACCCAUGUCAGGAUAUGUAGAUAAAAAGAAAAUAAAAUAAAAACAGAAGGGACAAAAG [Mat - Same state - Mayanna Mod - D103]	0.0644 µM	0.0763 µM
CUCUUGUCAGGAUAUCAAAGAAAAGAAAAGAAAGAAAAGAAUGAGAAGGGACAUGAGGAUCACCCAUGUAAGAA [EteRNA is fun!]	0.0321 µM	0.0348 µM
AAAAAGUCAGGAUAUGUGGAAAAAAUAAAAAAAAUAAAAACACAGAAGGGACAUGAGGAUCACCCAUGUAAAAA [Ex 4 May 19]	0.0717 µM	0.0472 µM
GUAAACCUAGGAUAUACAUGAGGAUCACCCAUGUAAAAAUUAAUAAAAAGAAAAACAAGUAGAAGGAGGUAGAU [JR_Exc003_Sub1225]	0.0196 µM	0.0208 µM
AGUUGGCGAGGAUAUACAUGAGGAUCACCCAUGUGAGAGAAAAAAGUGAAAAAGAAAAGUAGAAGGCGCUGACA [73%, Moding Norbert Elias, 3]	0.0479 µM	0.195 µM
AAAAUGUGAGGAUAUGUACGAAAAAAUAAAAAAAUAAAAGUACAGAAGGCACAUGAGGAUCACCCAUGUGGGAA [EX4 399: Minimal 12]	0.158 µM	0.094 µM
GAAAAACAUGAGGAUCACCCAUGUAAGGAUAUGCUAAAAAACGCAAAAAAAGCGAAUAGCAGAAGGUACAAAAG [Mat - Exclusion 1 - Eli mod - D82]	0.0223 µM	0.0781 µM
AACUAACAUGAGGAUCACCCAUGUCAGGAUAUGCAAAGAUCGAUCGAACGAUCGAUAAGCAGAAGGGACAAAAA [Amethyst 95]	0.0233 µM	0.0369 µM
CUCUAGUGAGGAUAUCGAAGAAAAGAAGAGAAAGAAAAGAACGAGAAGGCACAUGAGGAUCACCCAUGUAAGAA [EteRNA is fun!]	0.0236 µM	0.049 µM
AAAAGCUCAGGAUAUACGGUCUGUUGUUGAGAAAUAUCGAAACAUGAGGAUCACCCAUGUAGAAGGGAGCGAAA [Exclusion2-cac2]	0.108 µM	0.269 µM
AAAACUCGAGGAUAUACGAACAUGUCAAAAGACGUGAAGGGACAUGAGGAUCACCCAUGUAGAAGGCGAGAAAA [Mat - Exclusion 2 - JL-Eli mod - D45]	0.0554 µM	0.123 µM
